Read-outs that look alike come from different tables or passages of the source.

Data set [1] deals with T1, GEN1 1-527 (dimer) (Homo sapiens, UniProt Q17RS7 1-527).
T1 sequence: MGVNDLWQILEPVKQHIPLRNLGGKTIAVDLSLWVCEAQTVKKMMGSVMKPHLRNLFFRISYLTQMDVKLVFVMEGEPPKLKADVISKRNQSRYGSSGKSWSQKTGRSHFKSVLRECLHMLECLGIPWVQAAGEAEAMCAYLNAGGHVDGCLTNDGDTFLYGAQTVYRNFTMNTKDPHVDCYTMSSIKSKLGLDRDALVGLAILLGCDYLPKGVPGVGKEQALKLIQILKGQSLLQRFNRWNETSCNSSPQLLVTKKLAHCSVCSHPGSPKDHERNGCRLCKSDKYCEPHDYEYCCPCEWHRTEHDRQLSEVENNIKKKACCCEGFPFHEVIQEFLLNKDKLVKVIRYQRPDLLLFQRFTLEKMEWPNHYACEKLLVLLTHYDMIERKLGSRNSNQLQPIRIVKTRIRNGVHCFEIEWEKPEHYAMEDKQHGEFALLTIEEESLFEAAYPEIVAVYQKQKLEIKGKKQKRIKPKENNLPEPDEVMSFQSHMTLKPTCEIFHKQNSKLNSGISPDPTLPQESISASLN
The data set can be described thus: EMSA.

The target of data set [2] is T1, GEN1 1-527 (dimer). The data set can be described thus: EMSA. The source holds these as a separate data set.

B1: X0 (Cy5, EMSA) (structured_DNA)
DNA 1: ACGCTGCCGAATTCTACCAGTGCCTTGCTAGGACATCTTTGCCCACCTGCAGGTTCACCC
DNA 2: GGGTGAACCTGCAGGTGGGCAAAGATGTCCATCTGTTGTAATCGTCAAGCTTTATGCCGT
DNA 3: ACGGCATAAAGCTTGACGATTACAACAGATCATGGAGCTGTCTAGAGGATCCGACTATCG
DNA 4: CGATAGTCGGATCCTCTAGACAGCTCCATGTAGCAAGGCACTGGTAGAATTCGGCAGCGT
With B1, the Kd in data set [1] turned out to be 6.23 nM; in data set [2], 23.4 nM.
